Data on ten sequences can be found in the Immune Epitope Database (IEDB).

Usually Kd stands for the concentration at which binding is half-saturated. A lower Kd goes with higher affinity.

One assay has as its target HLA-A*02:01. The assay can be described thus: IEDB peptide-MHC binding, purified MHC/competitive/fluorescence; filed as Kd, often an IC50 or EC50 that approximates it; ≥ and ≤ were set here for values at or beyond the usual limits of such assays.
A further assay concerns the target HLA-A*02:03. Described as above.
The next assay addresses HLA-A*02:11. Described as above.
For another assay, the target named is HLA-A*02:12. Described as above.
The target in the next assay is HLA-A*02:16. The description is as above.
The target in the next assay is HLA-A*02:19. The assay is described as above.
In a further assay the target is HLA-A*03:01. The assay is described as above.
For another assay, the target named is HLA-A*24:03. The assay is described as above.
For assay [1], the target named is HLA-A*26:01. The assay is described as above.
The target of another assay is HLA-A*68:02. The assay is described as above. The following applies: source organism: Giardia lamblia ATCC 50803.
In another assay the target is HLA-A*69:01. The assay is described as above. The following applies: source organism: Giardia lamblia ATCC 50803.
The target in another assay is HLA-B*18:01. Described as above.
Assay [2] concerns the target HLA-B*27:03. Described as above.
In a further assay the target is HLA-B*39:01. Described as above.
Assay [3] concerns the target HLA-B*51:01. The description is as above.
The next assay has as its target HLA-B*57:01. The assay is described as above.
The target of another assay is HLA-B*15:09. The assay can be described thus: IEDB peptide-MHC binding, purified MHC/direct/fluorescence; filed as Kd, often an IC50 or EC50 that approximates it; ≥ and ≤ were set here for values at or beyond the usual limits of such assays.
The target in another assay is HLA-A*01:01. The experiment in a line: IEDB peptide-MHC binding, purified MHC/competitive/fluorescence; filed as Kd, often an IC50 or EC50 that approximates it; ≥ and ≤ were set here for values at or beyond the usual limits of such assays.
The target in the next assay is HLA-B*58:01. The description is as above.
The next assay addresses HLA-C*14:02. The assay can be described thus: IEDB peptide-MHC binding, purified MHC/direct/fluorescence; filed as Kd, often an IC50 or EC50 that approximates it; ≥ and ≤ were set here for values at or beyond the usual limits of such assays. The following applies: source organism: Mycobacterium tuberculosis str. Haarlem.
The target in assay [4] is HLA-B*15:01. The experiment in a line: IEDB peptide-MHC binding, purified MHC/competitive/fluorescence; filed as Kd, often an IC50 or EC50 that approximates it; ≥ and ≤ were set here for values at or beyond the usual limits of such assays. The following applies: source organism: Bacillus cereus ATCC 4342.
The next assay addresses HLA-B*15:17. The description is as above. The settings on record: source organism: Bacillus cereus ATCC 4342.
For a further assay, the target named is HLA-B*46:01. The description is as above. The settings on record: source organism: Bacillus cereus ATCC 4342.
For assay [5], the target named is HLA-A*26:01. The experiment in a line: IEDB peptide-MHC binding, purified MHC/direct/fluorescence; filed as Kd, often an IC50 or EC50 that approximates it; ≥ and ≤ were set here for values at or beyond the usual limits of such assays. The following applies: source organism: Vibrio parahaemolyticus AQ3810.
For assay [6], the target named is HLA-B*15:01. The description is as above. The settings on record: source organism: Vibrio parahaemolyticus AQ3810.
For assay [7], the target named is HLA-B*27:03. Described as above. The settings on record: source organism: Vibrio parahaemolyticus AQ3810.
Assay [8] deals with HLA-B*51:01. Described as above. The following applies: source organism: Vibrio parahaemolyticus AQ3810.
Another assay has as its target HLA-C*06:02. The assay is described as above. The settings on record: source organism: Homo sapiens.
The target of another assay is HLA-A*29:02. The assay can be described thus: IEDB peptide-MHC binding, purified MHC/competitive/fluorescence; filed as Kd, often an IC50 or EC50 that approximates it; ≥ and ≤ were set here for values at or beyond the usual limits of such assays. The following applies: source organism: Homo sapiens.
Setting [9] is: source organism: Giardia lamblia ATCC 50803.
[10] abbreviates: source organism: Yersinia pestis Nepal516.
Setting [11] is: source organism: Bacillus cereus ATCC 4342.
The mark [12] stands for this setting: source organism: Escherichia coli O139:H28 str. E24377A.

ISKANWMTY: the Kd with HLA-A*02:01 (setting [9]), with HLA-A*02:03 (setting [9]), with HLA-A*02:11 (setting [9]), with HLA-A*02:12 (setting [9]), with HLA-A*02:16 (setting [9]) and in the assay with HLA-A*02:19 (setting [9]) was ≥ 20 µM each time. Moreover, the Kd with HLA-A*03:01 (setting [9]), with HLA-A*24:03 (setting [9]), in the assay with HLA-A*26:01 [1] (setting [9]), with HLA-A*68:02, in the assay with HLA-A*69:01 and in the assay with HLA-B*18:01 (setting [9]) was ≥ 20 µM in each case. Also, the Kd is ≥ 20 µM with HLA-B*27:03 [2] (setting [9]), ≥ 20 µM with HLA-B*39:01 (setting [9]), ≥ 20 µM in the assay with HLA-B*51:01 [3] (setting [9]) and 0.0837 µM with HLA-B*57:01 (setting [9]).
Consider TMDVYVMIL, for which the Kd in the assay with HLA-B*15:09 (source organism: Vibrio cholerae V52) amounted to 0.384 µM; with HLA-B*39:01 (source organism: Vibrio cholerae MAK 757), 0.0123 µM.
Consider YSSPHLLRY, for which the values for the Kd in the assay with HLA-A*01:01 (setting [10]), with HLA-A*03:01 (setting [10]) and in the assay with HLA-B*58:01 (setting [10]) were 0.0103 µM, 0.258 µM and 0.0045 µM, respectively.
On to YDAHHRFIL, for which the Kd with HLA-B*15:09 (source organism: Listeria monocytogenes serotype 4b str. H7858) was ≥ 20 µM.
Turning to IANTTDHFF, the Kd with HLA-A*02:01 (setting [9]), with HLA-A*02:03 (setting [9]), with HLA-A*02:12 (setting [9]), with HLA-A*02:16 (setting [9]), with HLA-A*02:19 (setting [9]) and with HLA-A*03:01 (setting [9]) was ≥ 20 µM throughout. In addition, the dissociation constant Kd with HLA-A*24:03 (setting [9]), in the assay with HLA-A*26:01 [1] (setting [9]), with HLA-A*68:02, with HLA-A*69:01, with HLA-B*18:01 (setting [9]) and with HLA-B*27:03 [2] (setting [9]) was ≥ 20 µM throughout. The dissociation constant (Kd) in the assay with HLA-B*39:01 (setting [9]) was ≥ 20 µM; with HLA-B*51:01 [3] (setting [9]) it was ≥ 20 µM; in the assay with HLA-B*57:01 (setting [9]) it was 0.159 µM.
In the case of AAIAVGVAL, in the assay with HLA-C*14:02, the dissociation constant (Kd) is ≥ 20 µM.
In the case of GLFWGGIWY, the Kd in the assay with HLA-A*02:01 (setting [11]) is ≥ 20 µM; with HLA-A*02:03 (setting [11]) it was ≥ 20 µM; in the assay with HLA-A*02:11 (setting [11]), 0.834 µM; in the assay with HLA-A*02:12 (setting [11]) it was ≥ 20 µM; with HLA-A*02:16 (setting [11]), 5.63 µM; with HLA-A*02:19 (setting [11]), ≥ 20 µM. The Kd in the assay with HLA-A*03:01 (setting [11]), with HLA-A*24:03 (setting [11]), in the assay with HLA-A*26:01 [1] (setting [11]), with HLA-B*15:01 [4], in the assay with HLA-B*15:17 and with HLA-B*18:01 (setting [11]) was ≥ 20 µM in each case. Further, the Kd in the assay with HLA-B*27:03 [2] (setting [11]), in the assay with HLA-B*39:01 (setting [11]), with HLA-B*46:01, in the assay with HLA-B*51:01 [3] (setting [11]) and with HLA-B*57:01 (setting [11]) was ≥ 20 µM throughout.
MAYGFFNNI: the equilibrium dissociation constant (Kd) is ≥ 20 µM with HLA-A*26:01 [5], ≥ 20 µM with HLA-B*15:01 [6], ≥ 20 µM with HLA-B*27:03 [7] and 0.03 µM with HLA-B*51:01 [8].
Consider ITAALAWSL, for which the results for the Kd with HLA-A*01:01 (setting [12]), with HLA-A*02:01 (setting [12]) and with HLA-B*58:01 (setting [12]) were ≥ 20 µM, 0.0725 µM and 0.672 µM, respectively.
On to NYIDKVRFL, for which the dissociation constant Kd with HLA-C*06:02 is 0.004 µM; with HLA-A*01:01 (source organism: Homo sapiens), ≥ 20 µM; in the assay with HLA-A*29:02, 0.109 µM.
